Test results taken from article PMC9978855 (Acta Pharmaceutica Sinica. B, 2022).

Molecular target: NLRP3 protein, purchased recombinant (UniProt Q96P20 1-1036)
Assay: SPR

Chain of NLRP3 protein, purchased recombinant (Q96P20 whole entry): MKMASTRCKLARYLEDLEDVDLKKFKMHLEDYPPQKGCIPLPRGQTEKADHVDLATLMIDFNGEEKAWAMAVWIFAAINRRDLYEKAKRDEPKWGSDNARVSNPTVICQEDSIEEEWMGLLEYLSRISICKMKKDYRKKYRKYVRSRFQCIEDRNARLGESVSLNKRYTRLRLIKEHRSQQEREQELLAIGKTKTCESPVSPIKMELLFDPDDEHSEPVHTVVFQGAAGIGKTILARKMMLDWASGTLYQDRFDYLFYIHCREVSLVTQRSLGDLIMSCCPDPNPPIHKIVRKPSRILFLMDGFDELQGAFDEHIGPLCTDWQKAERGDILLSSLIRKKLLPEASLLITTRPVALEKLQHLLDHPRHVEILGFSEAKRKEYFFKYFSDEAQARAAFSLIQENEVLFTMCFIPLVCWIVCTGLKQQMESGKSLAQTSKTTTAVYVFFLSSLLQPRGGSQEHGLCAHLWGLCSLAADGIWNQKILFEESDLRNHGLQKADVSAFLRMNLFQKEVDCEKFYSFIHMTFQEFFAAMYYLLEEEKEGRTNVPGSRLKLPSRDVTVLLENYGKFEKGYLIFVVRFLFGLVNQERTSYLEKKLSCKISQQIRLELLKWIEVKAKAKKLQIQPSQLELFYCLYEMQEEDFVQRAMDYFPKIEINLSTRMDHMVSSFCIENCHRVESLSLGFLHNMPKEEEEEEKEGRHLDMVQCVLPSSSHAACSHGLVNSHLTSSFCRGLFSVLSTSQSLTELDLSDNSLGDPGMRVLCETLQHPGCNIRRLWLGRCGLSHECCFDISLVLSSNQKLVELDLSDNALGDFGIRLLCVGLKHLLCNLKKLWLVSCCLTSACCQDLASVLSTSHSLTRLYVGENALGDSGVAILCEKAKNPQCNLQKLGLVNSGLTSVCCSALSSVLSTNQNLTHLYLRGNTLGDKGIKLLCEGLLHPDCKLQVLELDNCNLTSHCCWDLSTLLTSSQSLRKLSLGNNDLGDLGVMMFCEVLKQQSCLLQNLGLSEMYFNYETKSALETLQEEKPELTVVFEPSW

B1: ASCT2 protein (alanine-serine-cysteine transporter 2), purchased recombinant (natural protein, UniProt Q15758 1-541, looked up)
chain: MVADPPRDSKGLAAAEPTANGGLALASIEDQGAAAGGYCGSRDQVRRCLRANLLVLLTVVAVVAGVALGLGVSGAGGALALGPERLSAFVFPGELLLRLLRMIILPLVVCSLIGGAASLDPGALGRLGAWALLFFLVTTLLASALGVGLALALQPGAASAAINASVGAAGSAENAPSKEVLDSFLDLARNIFPSNLVSAAFRSYSTTYEERNITGTRVKVPVGQEVEGMNILGLVVFAIVFGVALRKLGPEGELLIRFFNSFNEATMVLVSWIMWYAPVGIMFLVAGKIVEMEDVGLLFARLGKYILCCLLGHAIHGLLVLPLIYFLFTRKNPYRFLWGIVTPLATAFGTSSSSATLPLMMKCVEENNGVAKHISRFILPIGATVNMDGAALFQCVAAVFIAQLSQQSLDFVKIITILVTATASSVGAAGIPAGGVLTLAIILEAVNLPVDHISLILAVDWLVDRSCTVLNVEGDALGAGLLQNYVDRTESRSTEPELIQVKSELPLDPLPVPTEEGNPLLKHYRGPAGDATVASEKESVM
In the case of B1, the Kd is reported as roughly 3.45 µM.
